Measurements: article PMC9352680, “A comprehensive thermodynamic model for RNA binding by the Saccharomyces cerevisiae Pumilio protein PUF4”

T1: PUF4 RNA-binding domain (Saccharomyces cerevisiae, UniProt P25339 537-888)
T1 sequence: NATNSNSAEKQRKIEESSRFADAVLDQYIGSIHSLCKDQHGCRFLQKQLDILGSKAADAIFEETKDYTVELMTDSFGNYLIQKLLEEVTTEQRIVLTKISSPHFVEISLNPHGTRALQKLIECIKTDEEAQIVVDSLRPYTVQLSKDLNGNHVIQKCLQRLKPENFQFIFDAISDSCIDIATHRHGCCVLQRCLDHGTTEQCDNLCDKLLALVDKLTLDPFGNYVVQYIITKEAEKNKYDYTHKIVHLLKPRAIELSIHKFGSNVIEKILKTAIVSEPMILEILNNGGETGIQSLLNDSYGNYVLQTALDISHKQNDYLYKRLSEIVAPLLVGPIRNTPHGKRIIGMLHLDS

B1: Ia_S1_P4E.1_K4.1_C4.1_H4.1_[A4T]_A4.1_F4.1_T4.1 (ssRNA)
RNA: UCUCUUUGUUUAUUAUCUCUU
B2: Ib_S1_P4E.1_K4.1_C4.1_H4.1_A4.1_[T7A]_F4.1_[T8C]_T4.1 (ssRNA)
RNA: UCUCUUUGUAUAACAUCUCUU
B3: Ic_S4_P5E.1_K5.1_C5.1_H5.1_A5.1_[T5C]_[T6C]_F5.1_[T8A]_[T9C]_[A10C]_T5.1 (ssRNA)
RNA: UUUGACAACUGAUCGUUCUUUCUUGUACCAACCUUCUUUCUCGAUCAGUUGUCUUU
B4: Ib_S1_P4E.1_K4.1_C4.1_H4.1_A4.1_[T7C]_F4.1_[T8A]_T4.1 (ssRNA)
RNA: UCUCUUUGUAUACAAUCUCUU
B5: Ic_S4_P4E.1_K4.1_C4.1_H4.1_A4.1_[A6C]_[T7C]_F4.1_[A9G]_T4.1 (ssRNA)
RNA: UUUGACAACUGAUCGUUCUUUCUUGUAUCCUGUUCUUUCUCGAUCAGUUGUCUUU
B6: Ic_S4_P4E.1_K4.1_C4.1_H4.1_A4.1_[A6C]_F4.1_[T8G]_[A9G]_T4.1 (ssRNA)
RNA: UUUGACAACUGAUCGUUCUUUCUUGUAUCUGGUUCUUUCUCGAUCAGUUGUCUUU
B7: Ic_S4_P4E.1_K4.1_C4.1_H4.1_A4.1_[A6T]_[T7G]_F4.1_[T8C]_[A9G]_T4.1 (ssRNA)
RNA: UUUGACAACUGAUCGUUCUUUCUUGUAUUGCGUUCUUUCUCGAUCAGUUGUCUUU
B8: Ic_S4_P4E.1_K4.1_C4.1_H4.1_A4.1_F4.1_[T8A]_T4.1 (ssRNA)
RNA: UUUGACAACUGAUCGUUCUUUCUUGUAUAUAAUUCUUUCUCGAUCAGUUGUCUUU
B9: Ic_S4_P4E.1_K4.1_C4.1_H4.1_A4.1_[A6T]_[T7A]_F4.1_[A9C]_T4.1 (ssRNA)
RNA: UUUGACAACUGAUCGUUCUUUCUUGUAUUAUCUUCUUUCUCGAUCAGUUGUCUUU
B10: Ic_S4_P4E.1_K4.1_C4.1_H4.1_A4.1_[A6T]_[T7C]_F4.1_[A9C]_T4.1 (ssRNA)
RNA: UUUGACAACUGAUCGUUCUUUCUUGUAUUCUCUUCUUUCUCGAUCAGUUGUCUUU
B11: Ic_S4_P4E.1_K4.1_C4.1_H4.1_A4.1_[A6T]_F4.1_[T8G]_[A9G]_T4.1 (ssRNA)
RNA: UUUGACAACUGAUCGUUCUUUCUUGUAUUUGGUUCUUUCUCGAUCAGUUGUCUUU
B12: Ic_S4_P4E.1_K4.1_C4.1_H4.1_A4.1_[T7A]_F4.1_[A9T]_T4.1 (ssRNA)
RNA: UUUGACAACUGAUCGUUCUUUCUUGUAUAAUUUUCUUUCUCGAUCAGUUGUCUUU
B13: Ic_S4_P4E.1_K4.1_C4.1_H4.1_A4.1_[A6T]_[T7C]_F4.1_[T8G]_[A9C]_T4.1 (ssRNA)
RNA: UUUGACAACUGAUCGUUCUUUCUUGUAUUCGCUUCUUUCUCGAUCAGUUGUCUUU
B14: Ic_S4_P4E.1_K4.1_C4.1_H4.1_A4.1_[A6T]_[T7C]_F4.1_[T8C]_[A9T]_T4.1 (ssRNA)
RNA: UUUGACAACUGAUCGUUCUUUCUUGUAUUCCUUUCUUUCUCGAUCAGUUGUCUUU
B15: Ic_S4_P4E.1_K4.1_C4.1_H4.1_A4.1_[A6C]_[T7A]_F4.1_[T8A]_[A9C]_T4.1 (ssRNA)
RNA: UUUGACAACUGAUCGUUCUUUCUUGUAUCAACUUCUUUCUCGAUCAGUUGUCUUU
B16: Ic_S4_P4E.1_K4.1_C4.1_H4.1_A4.1_[A6C]_[T7A]_F4.1_[A9G]_T4.1 (ssRNA)
RNA: UUUGACAACUGAUCGUUCUUUCUUGUAUCAUGUUCUUUCUCGAUCAGUUGUCUUU
B17: Ic_S4_P4E.1_K4.1_C4.1_H4.1_A4.1_[A6T]_F4.1_[T8G]_[A9T]_T4.1 (ssRNA)
RNA: UUUGACAACUGAUCGUUCUUUCUUGUAUUUGUUUCUUUCUCGAUCAGUUGUCUUU
B18: Ic_S4_P4E.1_K4.1_C4.1_H4.1_A4.1_[A6T]_[T7C]_F4.1_[T8A]_[A9C]_T4.1 (ssRNA)
RNA: UUUGACAACUGAUCGUUCUUUCUUGUAUUCACUUCUUUCUCGAUCAGUUGUCUUU
B19: Ic_S4_P4E.1_K4.1_C4.1_H4.1_A4.1_[A6C]_F4.1_[T8C]_[A9G]_T4.1 (ssRNA)
RNA: UUUGACAACUGAUCGUUCUUUCUUGUAUCUCGUUCUUUCUCGAUCAGUUGUCUUU
B20: Ic_S4_P4E.1_K4.1_C4.1_H4.1_A4.1_[A6C]_F4.1_[T8C]_[A9T]_T4.1 (ssRNA)
RNA: UUUGACAACUGAUCGUUCUUUCUUGUAUCUCUUUCUUUCUCGAUCAGUUGUCUUU
B21: Ic_S4_P4E.1_K4.1_C4.1_H4.1_A4.1_[A6C]_F4.1_[T8C]_[A9C]_T4.1 (ssRNA)
RNA: UUUGACAACUGAUCGUUCUUUCUUGUAUCUCCUUCUUUCUCGAUCAGUUGUCUUU
B22: Ic_S4_P4E.1_K4.1_C4.1_H4.1_A4.1_[T7C]_F4.1_[T8G]_[A9T]_T4.1 (ssRNA)
RNA: UUUGACAACUGAUCGUUCUUUCUUGUAUACGUUUCUUUCUCGAUCAGUUGUCUUU
B23: Ic_S4_P4E.1_K4.1_C4.1_H4.1_A4.1_[A6T]_[T7C]_F4.1_[T8C]_[A9G]_T4.1 (ssRNA)
RNA: UUUGACAACUGAUCGUUCUUUCUUGUAUUCCGUUCUUUCUCGAUCAGUUGUCUUU
B24: Ic_S4_P4E.1_K4.1_C4.1_H4.1_A4.1_[A6C]_F4.1_[T8G]_[A9C]_T4.1 (ssRNA)
RNA: UUUGACAACUGAUCGUUCUUUCUUGUAUCUGCUUCUUUCUCGAUCAGUUGUCUUU

Target: T1, PUF4 RNA-binding domain
Test: Mg; RNA-MaP; 20 mM Na-HEPES pH 7.4, 30 mM KOAc, 0.75 mM MgCl2, 0.1% Tween-20, 5% glycerol, 0.1 mg/mL BSA, 2 mM DTT; 25 C; 0.0125-409.6 nM protein
Conditions: tags: N-His6-TEV cleaved; C-SNAP kept, Cy3B-labelled; label: tethered on chip by stalled RNA polymerase

Binder | Kd
B1 | 11.5 nM
B2 | 11.8 nM
B3 | 424 nM
B4 | 44.8 nM
B5 | 29.9 nM
B6 | 89.5 nM
B7 | 593 nM
B8 | 2.9 nM
B9 | 38.3 nM
B10 | 34.4 nM
B11 | 230 nM
B12 | 10.2 nM
B13 | 417 nM
B14 | 61.9 nM
B15 | 477 nM
B16 | 10.1 nM
B17 | 46.1 nM
B18 | 425 nM
B19 | 31.1 nM
B20 | 16.7 nM
B21 | 31.5 nM
B22 | 27.5 nM
B23 | 158 nM
B24 | 52 nM
